Experimental data: patent US20120201746A1 (AbbVie / Abbott, published 2012)

molecular target: T1, Neonatal Fc receptor (FcRn) on CHO-FcRnGPI cells; assay: flow cytometry on CHO-FcRnGPI cells, pH 6.4
T1 construct: whole, on cells; also called FcRn receptor
Procedure: CHO-FcRnGPI cells (Stable FcRn receptor expressor) and CHO-pBudl l cells (non-FcRn expressor) were aliquotted into 96-well plates at 1×10⁵ cells/well. Cells were resuspended in 150 μl FACS buffer. Anti-c-Met Ab and half-Ig binding proteins were diluted to 100 μg/ml in FACS buffer pH 6.4 and pH 7.4. 30 μl of diluted antibody or half-Ig binding protein was added to each well and incubated on ice for 1 hour. Following 2 washes with FACS buffer, 50 μl of secondary antibody R-phycoerythrin-conjugated AfiniPure F(ab′)₂ Fragment goat anti-human IgG (Jackson ImmunoResearch®, West Grove, Pa.) diluted in FACS buffer pH 6.4 or pH7.4 was added. The mixture was incubated for 30 min on ice. The cells were resuspended in 100 μl PBS with 1% FBS (Invitrogen®, Carlsbad, Calif.) and 2 μg/ml propidium iodide (Invitrogen®, Carlsbad, Calif.) of the corresponding pH. Final FACS data were acquired on a FACScan (Becton Dickinson, Franklin Lakes, N.J.).

EC50 [µM]	Binder
1.09	cMet-Mut1 (antibody, human IgG1, kappa, also called cMetHC-Mut1) heavy: not shown light: DFMMSQSPSSLTVSVGEKVTVSCKSSQSLLYTSSQKNYLAWYQQKPGQSPKLLIYWASTRESGVPDRFTGSGSGTDFTLTITSVKADDLAVYYCQQYYAYPWTFGGGTKLELKRTVAAPSVFIFPPSDEQLKSGTASVVCLLNNFYPREAKVQWKVDNALQSGNSQESVTEQDSKDSTYSLSSTLTLSKADYEKHKVYACEVTHQGLSSPVTKSFNRGEC
3290	cMet-Mut5 (antibody, human IgG1, kappa, Half-Ig; CH3 P395A, F405R, Y407R, K409D; 97.2 % half-Ig by SEC; also called cMetHC-Mut5) heavy: QVQLQQSGPELVRPGASVKMSCRASGYTFTSYWLHWVKQRPGQGLEWIGMIDPSNSDTRFNPNFKDKATLNVDRSSNTAYMLLSSLTSADSAVYYCATYGSYVSPLDYWGQGTSVTVSSASTKGPSVFPLAPSSKSTSGGTAALGCLVKDYFPEPVTVSWNSGALTSGVHTFPAVLQSSGLYSLSSVVTVPSSSLGTQTYICNVNHKPSNTKVDKKVEPKSCDKTHTSPPSPAPELLGGPSVFLFPPKPKDTLMISRTPEVTCVVVDVSHEDPEVKFNWYVDGVEVHNAKTKPREEQYNSTYRVVSVLTVLHQDWLNGKEYKCKVSNKALPAPIEKTISKAKGQPREPQVYTLPPSREEMTKNQVSLTCLVKGFYPSDIAVEWESNGQPENNYKTTPAVLDSDGSFRLRSDLTVDKSRWQQGNVFSCSVMHEALHNHYTQKSLSLSPGK light: DFMMSQSPSSLTVSVGEKVTVSCKSSQSLLYTSSQKNYLAWYQQKPGQSPKLLIYWASTRESGVPDRFTGSGSGTDFTLTITSVKADDLAVYYCQQYYAYPWTFGGGTKLELKRTVAAPSVFIFPPSDEQLKSGTASVVCLLNNFYPREAKVQWKVDNALQSGNSQESVTEQDSKDSTYSLSSTLTLSKADYEKHKVYACEVTHQGLSSPVTKSFNRGEC
293	cMet-Mut10 (antibody, human IgG1, kappa, Half-Ig; CH3 P395A, F405R, K409D; 97.5 % half-Ig by SEC; also called cMetHC-Mut10; cMet half Ig mut10) heavy: QVQLQQSGPELVRPGASVKMSCRASGYTFTSYWLHWVKQRPGQGLEWIGMIDPSNSDTRFNPNFKDKATLNVDRSSNTAYMLLSSLTSADSAVYYCATYGSYVSPLDYWGQGTSVTVSSASTKGPSVFPLAPSSKSTSGGTAALGCLVKDYFPEPVTVSWNSGALTSGVHTFPAVLQSSGLYSLSSVVTVPSSSLGTQTYICNVNHKPSNTKVDKKVEPKSCDKTHTSPPSPAPELLGGPSVFLFPPKPKDTLMISRTPEVTCVVVDVSHEDPEVKFNWYVDGVEVHNAKTKPREEQYNSTYRVVSVLTVLHQDWLNGKEYKCKVSNKALPAPIEKTISKAKGQPREPQVYTLPPSREEMTKNQVSLTCLVKGFYPSDIAVEWESNGQPENNYKTTPAVLDSDGSFRLYSDLTVDKSRWQQGNVFSCSVMHEALHNHYTQKSLSLSPGK light: DFMMSQSPSSLTVSVGEKVTVSCKSSQSLLYTSSQKNYLAWYQQKPGQSPKLLIYWASTRESGVPDRFTGSGSGTDFTLTITSVKADDLAVYYCQQYYAYPWTFGGGTKLELKRTVAAPSVFIFPPSDEQLKSGTASVVCLLNNFYPREAKVQWKVDNALQSGNSQESVTEQDSKDSTYSLSSTLTLSKADYEKHKVYACEVTHQGLSSPVTKSFNRGEC
1.13	cMet-Mut3 (antibody, human IgG1, kappa, Half-Ig; CH3 T366F, L368F, P395A, F405R, Y407R, K409D; 82.4 % half-Ig by SEC; also called cMetHC-Mut3) heavy: QVQLQQSGPELVRPGASVKMSCRASGYTFTSYWLHWVKQRPGQGLEWIGMIDPSNSDTRFNPNFKDKATLNVDRSSNTAYMLLSSLTSADSAVYYCATYGSYVSPLDYWGQGTSVTVSSASTKGPSVFPLAPSSKSTSGGTAALGCLVKDYFPEPVTVSWNSGALTSGVHTFPAVLQSSGLYSLSSVVTVPSSSLGTQTYICNVNHKPSNTKVDKKVEPKSCDKTHTSPPSPAPELLGGPSVFLFPPKPKDTLMISRTPEVTCVVVDVSHEDPEVKFNWYVDGVEVHNAKTKPREEQYNSTYRVVSVLTVLHQDWLNGKEYKCKVSNKALPAPIEKTISKAKGQPREPQVYTLPPSREEMTKNQVSLFCFVKGFYPSDIAVEWESNGQPENNYKTTPAVLDSDGSFRLRSDLTVDKSRWQQGNVFSCSVMHEALHNHYTQKSLSLSPGK light: DFMMSQSPSSLTVSVGEKVTVSCKSSQSLLYTSSQKNYLAWYQQKPGQSPKLLIYWASTRESGVPDRFTGSGSGTDFTLTITSVKADDLAVYYCQQYYAYPWTFGGGTKLELKRTVAAPSVFIFPPSDEQLKSGTASVVCLLNNFYPREAKVQWKVDNALQSGNSQESVTEQDSKDSTYSLSSTLTLSKADYEKHKVYACEVTHQGLSSPVTKSFNRGEC
